The Kd is the equilibrium constant for the complex coming apart.

Here are results for eight molecules from patent publication US20260209350A1 (Alector, published 2026).

T1: mouse TREM2 on cells (mouse, UniProt Q99NH8 19-227)
T1 construct: whole, on cells; Used for the recombinant protein on BWZ/BW cells (with mouse DAP12) and for the native protein on mouse macrophages and dendritic cells; the cell type stands under assay; also called mTREM2; mTrem2
T1 sequence (looked up): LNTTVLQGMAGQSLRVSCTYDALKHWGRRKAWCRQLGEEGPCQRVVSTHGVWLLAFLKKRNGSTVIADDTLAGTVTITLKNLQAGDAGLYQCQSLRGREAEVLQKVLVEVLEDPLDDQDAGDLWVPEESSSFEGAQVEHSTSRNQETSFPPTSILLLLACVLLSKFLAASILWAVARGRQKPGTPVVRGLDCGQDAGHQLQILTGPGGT

T2: human TREM2 Fc fusion protein (human, UniProt Q9NZC2 19-174)
T2 construct: also called hTREM2-Fc; not shown: Fc part not specified
T2 sequence: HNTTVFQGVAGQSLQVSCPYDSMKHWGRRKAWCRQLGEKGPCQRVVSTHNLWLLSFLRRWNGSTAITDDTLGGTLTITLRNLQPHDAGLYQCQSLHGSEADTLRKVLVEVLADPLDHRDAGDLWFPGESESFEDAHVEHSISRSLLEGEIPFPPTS

T3: mouse TREM2 Fc fusion protein (mouse, UniProt Q99NH8 19-171)
T3 construct: also called mTREM2-Fc; not shown: Fc part not specified
T3 sequence (looked up): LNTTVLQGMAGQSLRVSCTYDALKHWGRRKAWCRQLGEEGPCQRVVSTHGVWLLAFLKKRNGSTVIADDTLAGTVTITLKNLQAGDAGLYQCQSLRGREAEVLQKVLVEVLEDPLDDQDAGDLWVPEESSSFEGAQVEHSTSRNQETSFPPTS

T4: human monomeric His tagged TREM2 protein (human, UniProt Q9NZC2 19-174)
T4 construct: also called hTREM2-HIS
T4 sequence: T2 sequence

B1: Ab11 (antibody, human IgG1, V domains shown)
VH: EVQLVQSGAEVKKPGESLKISCKGSGYSFTTYWIGWVRQMPGKGLEWMGIIYPGDSDTRYSPSFQGQVTISADKSISTAYLQWSSLKASDTAMYYCARAGHYDGGHLGMDVWGQGTTVTVSS
VL: EIVLTQSPGTLSLSPGERATLSCRASQSVSSDYLAWYQQKPGQAPRLLIYGASSRATGIPDRFSGSGSGTDFTLTISRLEPEDFAVYYCQQDYSYPWTFGGGTKVEIK
notes: human IgG1
B2: Ab16 (antibody, human IgG1, V domains shown)
VH: QLQLQESGPGLVKPSETLSLTCTVSGGSISSNSYYWGWIRQPPGKGLEWIGSIYYSGSTYYNPSLKSRVTISVDTSKNQFSLKLSSVTAADTAVYYCARGVLGYGVFDYWGQGTLVTVSS
VL: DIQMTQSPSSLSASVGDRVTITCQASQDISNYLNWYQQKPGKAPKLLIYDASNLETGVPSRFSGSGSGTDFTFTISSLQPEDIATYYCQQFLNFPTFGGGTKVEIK
notes: human IgG1
B3: Ab17 (antibody, human IgG1, V domains shown)
VH: B2 VH
VL: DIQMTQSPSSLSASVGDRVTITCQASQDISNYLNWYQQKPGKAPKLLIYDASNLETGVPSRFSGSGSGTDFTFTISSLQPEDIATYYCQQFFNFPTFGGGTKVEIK
notes: human IgG1
B4: Ab12 (antibody, human IgG1, V domains shown)
VH: EVQLVQSGAEVKKPGESLKISCKGSGYSFTSYWIGWVRQMPGKGLEWMGIIYPGDSDTRYSPSFQGQVTISADKSISTAYLQWSSLKASDTAMYYCARLGHYSGTVSSYGMDVWGQGTTVTVSS
VL: DIQMTQSPSSLSASVGDRVTITCRASQSISSYLNWYQQKPGKAPKLLIYAASSLQSGVPSRFSGSGSGTDFTLTISSLQPEDFATYYCQQEYAVPYTFGGGTKVEIK
notes: human IgG1
B5: Ab15 (antibody, human IgG1, V domains shown)
VH: QVQLQESGPGLVKPSQTLSLTCTVSGGSISSGGYYWSWIRQHPGKGLEWIGNIYYSGSTVYNPSLKSRVTISVDTSKNQFSLKLSSVTAADTAVYYCARGLYGYGVLDVWGQGTMVTVSS
VL: DIQMTQSPSSLSASVGDRVTITCQASQDISNYLNWYQQKPGKAPKLLIYDASNLETGVPSRFSGSGSGTDFTFTISSLQPEDIATYYCQQFDTYPTFGGGTKVEIK
notes: human IgG1
B6: Ab36 (antibody, human IgG1, V domains shown)
VH: QVQLVESGGGVVQPGRSLRLSCAASGFTFSTYGMHWVRQAPGKGLEWVAVIWYDGSNKYYADSVKGRFTISRDNSKNTLYLQMNSLRAEDTAVYYCARGTGAAAASPAFDIWGQGTMVTVSS
VL: EIVLTQSPATLSLSPGERATLSCRASQSVSSYLAWYQQKPGQAPRLLIYDASNRATGIPARFSGSGSGTDFTLTISSLEPEDFAVYYCQQLFDWPTFGGGTKVEIK
notes: human IgG1
B7: Ab44 (antibody, human IgG1, V domains shown)
VH: B6 VH
VL: B6 VL with L4M, A51S, F92V, D93H
notes: human IgG1
B8: Ab13 (antibody, human IgG1, V domains shown)
VH: QVQLVQSGAEVKKPGASVKVSCKASGYTFTSYGISWVRQAPGQGLEWMGWISAYNGNTNYAQKLQGRVTMTTDTSTSTAYMELRSLRSDDTAVYYCARGPSHYYDLAWGQGTLVTVSS
VL: EIVLTQSPATLSLSPGERATLSCRASQSVSSYLAWYQQKPGQAPRLLIYDASNRATGIPARFSGSGSGTDFTLTISSLEPEDFAVYYCQQVSNYPITFGGGTKVEIK
notes: human IgG1

Where a chain is given by its changes, count along the chain named.

The target of the first assay is T1, mouse TREM2 on cells. As to the kind of experiment: FACS, mTrem2 cells. A general note: Flow cytometry measures light scatter and fluorescence of single cells or particles in a stream.
B1: the MFI came to 5500 MFI.

On to B2, for which the MFI turned out to be 6380 MFI.

The molecule B3 returned an MFI of 10300 MFI.

B4 showed an MFI of 1550 MFI.

The molecule B5 registered an MFI of 4760 MFI.

For B6, the MFI stood at 1260 MFI.

Molecule B7 returned an MFI of 1210 MFI.

Molecule B8 displayed an MFI of 3250 MFI.

The next assay addresses T2, human TREM2 Fc fusion protein. As to the kind of experiment: ForteBio or MSD-SET, avid. A general note: Biolayer interferometry detects binding as a change in optical thickness at a sensor tip.
B1 displayed a dissociation constant (Kd) of 0.934 nM.

Consider B2, for which the dissociation constant (Kd) is 1.09 nM.

Molecule B3 returned an equilibrium dissociation constant (Kd) of 0.792 nM.

As for B4, the dissociation constant (Kd) was determined as 1.19 nM.

In turn, B5 registered an equilibrium dissociation constant (Kd) of 0.605 nM.

On to B6, for which the Kd turned out to be 0.465 nM.

Regarding B7, binding was characterised by a dissociation constant (Kd) of 0.562 nM.

In turn, B8 registered a Kd of 1.49 nM.

For a further assay, the target named is T3, mouse TREM2 Fc fusion protein. As to the kind of experiment: ForteBio or MSD-SET, avid.
B1 showed a dissociation constant (Kd) of 1.19 nM.

In turn, B2 displayed a Kd of 1.36 nM.

The molecule B3 showed a dissociation constant Kd of 1.67 nM.

In the case of B4, the equilibrium dissociation constant (Kd) stood at 7.91 nM.

B5 gave a dissociation constant (Kd) of 2.8 nM.

Regarding B6, the binding result is given as “no binding”.

Consider B7, for which the binding result is “no binding”.

Consider B8, for which the Kd is 1.71 nM.

The next assay addresses T4, human monomeric His tagged TREM2 protein. As to the kind of experiment: ForteBio or MSD-SET, monovalent.
Turning to B1, the dissociation constant (Kd) amounted to 7.2 nM.

Consider B2, for which the Kd was 2.47 nM.

For the molecule B3, the Kd was found to be 3.46 nM.

The molecule B4 registered a Kd of 2.68 nM.

B5: the Kd is 3.03 nM.

Take B6: the dissociation constant (Kd) amounted to 4.01 nM.

The molecule B7 yielded a Kd of 9.46 nM.

B8: the Kd was 66.7 nM.
